± gives the standard deviation of the averaged measurements.
Test system: ATP
Assay: switch fluorescence ratio, 500 uM ATP over buffer (Cy3 cluster intensity, sum of 5 cycles each) (fold (ratio)); higher = stronger signal-on switching upon ATP binding; sequences stand for … in TCGTCGGCAGCGTCAGATGTGTATAAGAGACAGTTTTTTTTTTTTTTTTTTTTTTTTT…TC
Conditions: aptamer strand: ATP DNA aptamer (quencher-CACCTGGGGGAGTATTGCGGAGGAAGG + anchor), 100 nM annealed; ATP concentration: 500 uM
Outline: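 Between each of five buffer/ATP cycles, the flow-cell was stripped with NaOH and re-annealed. Each cycle imaged Cy3-labelled switching-strand clusters, annealed to 100 nM quencher-labelled ATP aptamer on a modified Illumina MiSeq flow-cell, first in selection buffer and then after 15 min with 500 uM ATP at 22 °C. The fluorescence ratio is summed target-cycle over summed buffer-cycle Cy3 intensity per cluster, averaged per switch-domain sequence, with clusters outside 100-1000 RFU excluded.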
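Note: ATP exposure 15 min at 22 °C before imaging.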

Sequence	switch fluorescence ratio
CTGGTGGACG	1.041 ± 0.0042
CTGGTGTAGT	1.03 ± 0.047
CTGGTTAGGG	0.98 ± 0.018
CTGGTTGGGT	1.01 ± 0.027
CTGGTTGTCT	1.01 ± 0.006
CTGGTTTAGC	1 ± 0.016
CTGGTTTAGG	1 ± 0.036
CTGGTTTAGT	0.978 ± 0.016
CTGTAAGGTT	1.09 ± 0.14
CTGTAAGTGG	0.989 ± 0.017
CTGTAATAAG	1.09 ± 0.075
CTGTAGTTTT	1.04 ± 0.038
CTGTATTGGG	0.977 ± 0.013
CTGTCCTTTT	1.11 ± 0.17
CTGTCGACTG	1.04 ± 0.017
CTGTCGTATG	0.9749 ± 0.0082
CTGTCTATGC	1.33 ± 0.049
CTGTCTCAAG	0.97 ± 0.059
CTGTCTGAGT	0.9632 ± 0.007
CTGTCTGTGC	1.09 ± 0.044
CTGTGAAAAA	1.09 ± 0.043
CTGTGCGACA	1.06 ± 0.053
CTGTGCTAAT	1.1 ± 0.037

Sequence	switch fluorescence ratio
CTGTGCTGT	1.005 ± 0.0062
CTGTGGCGCT	1.01 ± 0.019
CTGTGGGTTG	1 ± 0.042
CTGTGTAGTG	0.9954 ± 0.002
CTGTGTGCGG	0.97 ± 0.03
CTGTGTGTTC	1.01 ± 0.026
CTGTTAGGAT	0.99 ± 0.028
CTGTTCGCCA	1.07 ± 0.077
CTGTTGATGG	1 ± 0.027
CTGTTGGGGT	0.988 ± 0.017
CTGTTGTCGG	0.989 ± 0.038
CTGTTTGCAG	0.987 ± 0.056
CTGTTTTACT	1.03 ± 0.042
CTGTTTTTTT	0.981 ± 0.039
CTTAAAAAGG	0.989 ± 0.0056
CTTAAAGTAT	0.9977 ± 0.0024
CTTAAATTAT	0.9967 ± 0.0089
CTTAACAGCG	1.01 ± 0.02
CTTAACATGC	1.06 ± 0.049
CTTAACCATT	0.98 ± 0.014
CTTACCTTGA	0.997 ± 0.031
CTTAGATTCT	0.993 ± 0.012
CTTAGGCCAC	0.99 ± 0.024

Sequence	switch fluorescence ratio
CTTAGGGCAC	1.05 ± 0.016
CTTAGGGGGT	1 ± 0.018
CTTAGGGGTA	0.999 ± 0.043
CTTAGTAATG	1.05 ± 0.11
CTTAGTACGG	1.01 ± 0.054
CTTAGTGCTT	0.973 ± 0.039
CTTAGTGGGG	0.962 ± 0.048
CTTATAGGTC	1.01 ± 0.017
CTTATGATGG	0.987 ± 0.01
CTTATTAGGG	0.986 ± 0.021
CTTATTTTTT	1.01 ± 0.029
CTTCATAAGT	0.983 ± 0.022
CTTCATGCTT	1.02 ± 0.048
CTTCCGGAGG	1.9 ± 0.048
CTTCGGACGG	1.24 ± 0.036
CTTCGGGGCG	1.01 ± 0.07
CTTCGGGGTT	1.03 ± 0.035
CTTCGGTGGC	1.01 ± 0.04
CTTCGTATCG	1.04 ± 0.059
CTTCTACGAT	0.998 ± 0.013
CTTCTAGAT	0.9895 ± 0.0013
CTTCTGGTCG	1.01 ± 0.04
CTTCTTCGGT	1 ± 0.015

Sequence	switch fluorescence ratio
CTTCTTTCTC	1.051 ± 0.0084
CTTGAAAACT	1.04 ± 0.044
CTTGAACGAA	1.02 ± 0.04
CTTGAATTTC	0.987 ± 0.017
CTTGACAATT	1 ± 0.023
CTTGAGTGTG	0.9827 ± 0.006
CTTGCAAACG	1.201 ± 0.0043
CTTGCCTCAG	1.021 ± 0.0076
CTTGCTATGC	1.64 ± 0.4
CTTGCTGTTG	1.0031 ± 0.00076
CTTGGAGGAA	0.999 ± 0.044
CTTGGCGAGA	1.01 ± 0.018
CTTGGGAATA	1.01 ± 0.05
CTTGGGATCA	0.971 ± 0.011
CTTGGGATTA	1.03 ± 0.016
CTTGGGGATC	0.979 ± 0.013
CTTGGGGTTA	0.998 ± 0.023
CTTGTAAATT	0.983 ± 0.035
CTTGTACTAA	1.012 ± 0.0062
CTTGTATAGC	0.992 ± 0.028
CTTGTCATCT	1.005 ± 0.0061
CTTGTGAGGA	1 ± 0.036
CTTGTGGCGT	1 ± 0.049

Sequence	switch fluorescence ratio
CTTGTGTACG	0.965 ± 0.02
CTTGTGTGTT	0.993 ± 0.057
CTTTAAGGGA	0.9875 ± 0.0035
CTTTACAGGG	1 ± 0.064
CTTTACTTTT	1.014 ± 0.0061
CTTTATGCGG	0.99361 ± 0.00077
CTTTATGTCT	1 ± 0.033
CTTTGAGCGA	1.11 ± 0.032
CTTTGATTGA	0.9806 ± 0.0047
CTTTGCACGA	1.1 ± 0.0077
CTTTGTAGGG	1.008 ± 0.0029
CTTTGTAGTA	0.977 ± 0.034
CTTTGTGGGG	1.01 ± 0.029
CTTTTAACTC	1.01 ± 0.024
CTTTTAATAG	1.08 ± 0.057
CTTTTACATG	1.003 ± 0.0095
CTTTTAGAAC	0.986 ± 0.027
CTTTTCAGGT	0.998 ± 0.019
CTTTTCTGAT	0.993 ± 0.04
CTTTTCTGTT	0.9861 ± 0.0085
CTTTTGAGGA	0.9952 ± 0.0042
CTTTTGGGCG	1.01 ± 0.056
CTTTTTATGT	0.96 ± 0.016

Sequence	switch fluorescence ratio
CTTTTTGACT	1.01 ± 0.028
CTTTTTGGAC	0.994 ± 0.071
CTTTTTGGGA	0.987 ± 0.012
CTTTTTGTTG	1.03 ± 0.031
CTTTTTTAAT	0.982 ± 0.012
CTTTTTTGTT	1 ± 0.021
CTTTTTTTGG	1 ± 0.022
GAAAAAAGGA	0.981 ± 0.028
GAAAAACTGT	1.06 ± 0.021
GAAAAAGGAG	1 ± 0.018
GAAAAAGGCG	1.01 ± 0.043
GAAAAAGTCG	0.997 ± 0.042
GAAAACATAG	1.01 ± 0.02
GAAAACTTAA	1.029 ± 0.006
GAAAAGCATG	0.988 ± 0.043
GAAAAGGGAG	0.974 ± 0.032
GAAAATAGAT	0.9663 ± 0.0028
GAAAATTAGT	1.016 ± 0.0023
GAAAATTTTT	1.06 ± 0.044
GAAACAGTGT	0.9732 ± 0.0046
GAAACGGATG	0.993 ± 0.041
GAAACTAGTT	0.992 ± 0.013
GAAACTTAGG	1.01 ± 0.019

Sequence	switch fluorescence ratio
GAAAGAAGTC	1.05 ± 0.02
GAAAGAGAGT	0.987 ± 0.023
GAAAGATTAT	1.03 ± 0.02
GAAAGCCTTT	1 ± 0.012
GAAAGCGGCT	1.032 ± 0.0089
GAAAGGCAAA	1.025 ± 0.0026
GAAAGGCAGA	1.01 ± 0.01
GAAAGGGCTC	1.09 ± 0.069
GAAAGGGGAT	0.99 ± 0.018
GAAAGGGGGG	1.04 ± 0.098
GAAAGGGGTG	1.02 ± 0.064
GAAAGTGCAA	1.09 ± 0.02
GAAAGTTTGG	1.01 ± 0.017
GAAATACGGG	1.09 ± 0.043
GAAATATCAA	0.974 ± 0.039
GAAATCATCA	0.96 ± 0.025
GAAATGTCGG	1.02 ± 0.028
GAAATGTGTT	1 ± 0.056
GAAATTAAGT	1.02 ± 0.045

Source: the supplement of paper PMC10126150
